Reference: patent publication CN109666072A (ZONHON BIOPHARMA INST INC, dated 2019)

Key:
[1] = target: T1, 重组人β2-微球蛋白 (recombinant human β2-microglobulin, expressed in E. coli) (human, UniProt P61769 21-119); assay: indirect ELISA, hybridoma supernatant on coated recombinant human β2-MG (1 μg/mL), HRP goat anti-mouse IgG
T1 construct: The same in-house recombinant protein serves as immunogen, ELISA coat and Western blot sample; also called β2-MG; 人β2-MG

[2] = target: T1, 重组人β2-微球蛋白 (recombinant human …); assay: Western blot, HRP-labelled scFv on recombinant β2-MG

| Binder | binding result [1] | binding result [2] |
| --- | --- | --- |
| 杂交瘤细胞株B12所表达抗体 (antibody expressed by hybridoma cell line B12) (antibody, V domains shown, Mouse monoclonal antibody tested as hybridoma culture supernatant and detected with HRP goat anti-mouse IgG) VH: DVKLVESGGGLVKPGGSLKLSCAASGFTFGSYTMSWVRQTPEKRLEWVAAISSGGSFTYYLDSVKGRFTISRDSAKTTLYLQMGSLKSEDTAMYYCSREGGPYYGSHYYALDYWGQGTSVTVSS VL: DIQMTQSTSSLSASLGDGVTISCRASQDITNYLNWYQQRPDGAVRLLIYYTSRLHSGVPSRFSGSGSGTNYSLTISNLEQEDIATYFCQQGNTLPPTFGGGTKLEIK | binds | – |
| 单链抗体BM12 (anti-human β2-microglobulin scFv BM12) (scFv, expressed in Pichia pastoris X-33; HRP-labelled in the Western blot; used as coating or gold-labelled antibody in the colloidal gold card; also called BM12-HRP; BM12-scFv) scFv: DVKLVESGGGLVKPGGSLKLSCAASGFTFGSYTMSWVRQTPEKRLEWVAAISSGGSFTYYLDSVKGRFTISRDSAKTTLYLQMGSLKSEDTAMYYCSREGGPYYGSHYYALDYWGQGTSVTVSSGGGGSGGGGSGGGGSDIQMTQSTSSLSASLGDGVTISCRASQDITNYLNWYQQRPDGAVRLLIYYTSRLHSGVPSRFSGSGSGTNYSLTISNLEQEDIATYFCQQGNTLPPTFGGGTKLEIK | – | binds |

Now from value to binder:

| binding result [1] | binding result [2] | Binder |
| --- | --- | --- |
| binds | – | 杂交瘤细胞株B17所表达抗体 (antibody expressed by hybridoma cell line B17) (antibody, V domains shown, Mouse monoclonal antibody tested as hybridoma culture supernatant and detected with HRP goat anti-mouse IgG) VH: not shown VL: QIVLTQSPAIMSASPGEKVTITCSASSSVSYMHWFQQKPGTSPKLWIYSTSNLASGVPARFSGSGSGTSYSLTISRMEAEDAATYYCHQRSSYPLTFGAGTKLEIK |
| – | binds | 单链抗体BM17 (anti-human β2-microglobulin scFv BM17) (scFv, expressed in Pichia pastoris X-33; HRP-labelled in the Western blot; used as gold-labelled or coating antibody in the colloidal gold card; also called BM17-HRP; BM17-scFv) scFv: QVTLKESGPGILQPSQTLSLTCSFSGFSLSTSGMGVSWIRQPSGKGLEWLAHIYWDDDKRYNPSLKSRLTISKDTSSNQVFLKITSVDTADTATYYCARVYYGYDGGFFDYWGQGTTLTVSSGGGGSGGGGSGGGGSQIVLTQSPAIMSASPGEKVTITCSASSSVSYMHWFQQKPGTSPKLWIYSTSNLASGVPARFSGSGSGTSYSLTISRMEAEDAATYYCHQRSSYPLTFGAGTKLEIK |
